Assay results taken from US20140147418A1.

Molecular target: B7.1 on mouse macrophages (CRL-2751) (mouse) (UniProt Q00609)
Assay: flow cytometry on mouse macrophages stained with FITC anti-B7-1 after medium from naive HEK-293 cells

UniProt Q00609, sequence (Q00609 38-306): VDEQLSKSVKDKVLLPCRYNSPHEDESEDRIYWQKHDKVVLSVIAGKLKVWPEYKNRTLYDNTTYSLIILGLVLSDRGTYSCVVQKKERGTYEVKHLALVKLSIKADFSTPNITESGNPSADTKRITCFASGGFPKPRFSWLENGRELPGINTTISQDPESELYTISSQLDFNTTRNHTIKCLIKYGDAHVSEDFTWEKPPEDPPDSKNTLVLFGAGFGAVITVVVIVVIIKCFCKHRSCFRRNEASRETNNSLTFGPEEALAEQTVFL

percent of macrophages B7-positive in the absence of CTLA4IgG: 18%
Substance: Armenian hamster IgG FITC-conjugated anti B7-1 (Santa Cruz Biotechnology) (antibody)
